Data published in patent US20060115839A1.

Biological target: T1, histone H3 peptide with dimethylated Lys79 (isothermal titration calorimetry)
T1 sequence (peptide, dimethylated Lys79): IAQDFKTDLR
Test: isothermal titration calorimetry (data not shown)

Sequence of 53BP1 tandem tudor domain (isothermal titration calorimetry) (P70399 1480-1621 limits assumed): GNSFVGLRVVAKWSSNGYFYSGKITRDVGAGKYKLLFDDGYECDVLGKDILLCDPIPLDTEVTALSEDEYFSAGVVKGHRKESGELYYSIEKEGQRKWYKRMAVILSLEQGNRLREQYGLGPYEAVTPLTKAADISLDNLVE

53BP1 tandem tudor domain (isothermal titration calorimetry) (from UniProt P70399 1480-1621)
Kd: < 1000 nM
